# B1: PpArsN1 (ArsN1 arsinothricin N-acetyltransferase from Pseudomonas putida KT2440), one subunit (enzyme)
# chain: MHSGIDIRVARPEDAEEIQIIYAPIVLNTAISFEEAVPSVEQMRERISTTLQTYPYLVAVREGRVVGYAYASQHRARAAYRWAVDVTVYVAEGQRRSGIARQLYDVLLPVLKRLGYRSAYAGIALPNEGSVGLHERLGFQHIGTFPQVGFKLDAWHDVGYWRFDFGDEGLHPEAPLGFLSQIPVPR
# notes: Written as a single subunit; also called phoN1 gene product; not shown: C-terminal six histidine tag from vector pBAD-Myc/His-A; the vector-derived residues between protein and tag are not sta
# Biological target: the molecule itself
# Experiment: crystal structure (chains A and B in the asymmetric unit) and size exclusion chromatography
protein,measurement,value
B1,binding result,binds

# Reference: US20220202763A1 (FLORIDA INTERNATIONAL UNIVERSITY BOARD OF TRUSTEES, published 2022)
